Substrate: CC(=O)OC[C@H](N)C(=O)O
Assay: purified protein
Settings: 15 mM Na2S, MOPS, 37 °C, no glycerol

B1: SaCysK (Staphylococcus aureus subsp. aureus N315) (protein)
chain: MAQKPVDNITQIIGGTPVVKLRNVVDDNAADVYVKLEYQNPGGSVKDRIALAMIEKAEREGKIKPGDTIVEPTSGNTGIGLAFVCAAKGYKAVFTMPETMSQERRNLLKAYGAELVLTPGSEAMKGAIKKAKELKEEHGYFEPQQFENPANPEVHELTTGPELLQQFEGKTIDAFLAGVGTGGTLSGVGKVLKKEYPNIEIVAIEPEASPVLSGGEPGPHKLQGLGAGFIPGTLNTEIYDSIIKVGNDTAMEMSRRVAKEEGILAGISSGAAIYAAIQKAKELGKGKTVVTVLPSNGERYLSTPLYSFDD
Question: For B1, which Km is on record?
Answer: The Km was 1378 ± 592 µM.

Reference: paper doi:10.1101/2025.03.26.645513v1
